Reference: paper PMC4276739 (2015)

Assays:
[1] = biological target: ActRII ECD (Homo sapiens) (UniProt P27037); conditions: cited from earlier work
[2] = biological target: T1, ALK3 (BMPRIa) ECD (Homo sapiens, UniProt P36894); assay: SPR
T1 chain: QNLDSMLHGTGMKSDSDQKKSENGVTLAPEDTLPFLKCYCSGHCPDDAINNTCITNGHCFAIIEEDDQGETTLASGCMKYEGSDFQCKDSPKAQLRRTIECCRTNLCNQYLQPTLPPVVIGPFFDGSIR

ActRII ECD (Homo sapiens), sequence (P27037 20-135): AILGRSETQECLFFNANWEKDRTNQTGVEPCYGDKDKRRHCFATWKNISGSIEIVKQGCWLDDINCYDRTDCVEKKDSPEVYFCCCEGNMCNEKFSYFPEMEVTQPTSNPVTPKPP
Activin A, sequence (P08476 311-426): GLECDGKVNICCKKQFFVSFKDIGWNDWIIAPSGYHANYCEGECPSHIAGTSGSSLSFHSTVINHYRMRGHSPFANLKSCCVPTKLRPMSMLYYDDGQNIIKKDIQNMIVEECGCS

Molecule | Kd [1] | Kd [2]
Activin A (from UniProt P08476) | 0.2 nM | 
BMP2 (protein) QAKHKQRKRLKSSCKRHPLYVDFSDVGWNDWIVAPPGYHAFYCHGECPFPLADHLNSTNHAIVQTLVNSVNSKIPKACCVPTELSAISMLYLDENEKVVLKNYQDMVVEGCGCR |  | 5 nM
